Common to all, as to assay: cell-based or functional assay
The target of test [1] is T1, human GIP receptor (human) (UniProt P48546).
T1 sequence (looked up): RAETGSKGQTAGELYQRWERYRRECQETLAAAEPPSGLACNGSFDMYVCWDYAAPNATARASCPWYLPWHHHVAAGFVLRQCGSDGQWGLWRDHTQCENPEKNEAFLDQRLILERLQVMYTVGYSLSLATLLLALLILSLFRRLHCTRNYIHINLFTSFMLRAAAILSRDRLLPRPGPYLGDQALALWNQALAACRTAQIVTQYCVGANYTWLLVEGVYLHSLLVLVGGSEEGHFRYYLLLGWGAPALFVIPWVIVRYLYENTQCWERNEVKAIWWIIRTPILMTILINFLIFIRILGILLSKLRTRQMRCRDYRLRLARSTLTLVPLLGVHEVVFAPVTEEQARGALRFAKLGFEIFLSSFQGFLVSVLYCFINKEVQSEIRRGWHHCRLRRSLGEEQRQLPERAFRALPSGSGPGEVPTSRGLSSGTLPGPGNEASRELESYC

The next test concerns the target hGLP-1R (Homo sapiens, UniProt P43220).
Test [2] deals with human glucagon receptor (human) (UniProt P47871).
Chain of human glucagon receptor (human) (P47871 26-477): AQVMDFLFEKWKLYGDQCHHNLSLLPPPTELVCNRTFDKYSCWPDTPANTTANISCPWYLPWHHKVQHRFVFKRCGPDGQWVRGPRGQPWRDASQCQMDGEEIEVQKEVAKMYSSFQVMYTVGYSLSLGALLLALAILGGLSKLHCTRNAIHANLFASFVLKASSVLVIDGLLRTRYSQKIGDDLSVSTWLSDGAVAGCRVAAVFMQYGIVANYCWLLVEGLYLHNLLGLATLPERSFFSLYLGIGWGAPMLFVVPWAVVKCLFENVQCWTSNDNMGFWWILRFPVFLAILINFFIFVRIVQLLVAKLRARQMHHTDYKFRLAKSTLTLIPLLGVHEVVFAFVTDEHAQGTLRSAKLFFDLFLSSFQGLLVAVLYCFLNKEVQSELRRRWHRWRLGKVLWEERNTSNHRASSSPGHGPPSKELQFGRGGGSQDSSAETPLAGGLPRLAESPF

Chain of hGLP-1R (P43220 24-463): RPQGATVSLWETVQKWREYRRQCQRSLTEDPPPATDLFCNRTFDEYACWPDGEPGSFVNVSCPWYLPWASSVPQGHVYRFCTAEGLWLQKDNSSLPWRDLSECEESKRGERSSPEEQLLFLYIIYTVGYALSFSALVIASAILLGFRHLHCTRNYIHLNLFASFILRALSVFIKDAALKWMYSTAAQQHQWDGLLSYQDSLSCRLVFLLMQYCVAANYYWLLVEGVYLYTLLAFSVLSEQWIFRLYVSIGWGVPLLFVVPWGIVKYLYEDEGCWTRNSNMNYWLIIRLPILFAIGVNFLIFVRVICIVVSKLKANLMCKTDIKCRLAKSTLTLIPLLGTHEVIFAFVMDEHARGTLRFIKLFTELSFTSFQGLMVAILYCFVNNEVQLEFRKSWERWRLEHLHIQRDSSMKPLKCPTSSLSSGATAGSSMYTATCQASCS

B1: Example 123 (peptide)
chain: YXQGTFTSDFSXXLDKKAQXAFIEWLLEGGESSGEPPPSGE
modifications: synthetic construct; SITE 2: note = 2-Aminoisobutyric Acid; SITE 12: note = L-ornithine; SITE 13: note = alpha-methyl-leucine; SITE 17: note = Lysine is chemically modified through conjugation of the epsilon-amino group of the Lysine side chain with (2-[2-(2-Amino-ethoxy)-ethoxy]-acetyl)-(gamma-Glu)
As for B1, the Relative cAMP EC50 in test [1] was 0.531 nM; with hGLP-1R, 4.82 nM; in test [2] it was 4.55 nM. Also, the cAMP Rel EC50, nM (in the presence of 1% HSA) is 94.6 nM in test [1], 1500 nM with hGLP-1R and 1740 nM in test [2].

B2: Example 1199 (peptide)
chain: YXQGTXTSDXXIXLDXKAQXEFIEXLIEGGPPSXXPPPSGGGE
modifications: Lys acylated with AEEA-γGlu-C18 diacid; non-natural residues; C-amide; synthetic construct; SITE 2: note = 2-Aminoisobutyric Acid; SITE 6: note = alpha-methyl-2-fluoro-L-phenylalanine; SITE 10: note = 3-(4-Pyridyl)-L-alanine; SITE 11: note = alpha-methyl-L-serine; SITE 13: note = alpha-methyl-leucine; SITE 16: note = L-ornithine; SITE 17: note = Lysine is chemically mo
For B2, the values for the Relative cAMP EC50 (in test [1]; with hGLP-1R; in test [2]) were 0.0076 nM, 0.5 nM and 2.05 nM, respectively. Besides, the results for the cAMP Rel EC50 (in the presence of 1% HSA) (in test [1]; with hGLP-1R; in test [2]) were 0.733 nM, 63.9 nM and 352 nM, respectively.

B3: Example 1213 (peptide)
chain: YXQGTXTSDXXIXLDXXAQXEFIEXLIEGGPSSGAPPPSGGGE
modifications: synthetic construct; SITE 2: note = 2-Aminoisobutyric Acid; SITE 6: note = alpha-methyl-2-fluoro-L-phenylalanine; SITE 10: note = 3-(4-Pyridyl)-L-alanine; SITE 11: note = alpha-methyl-L-serine; SITE 13: note = alpha-methyl-leucine; SITE 16: note = L-ornithine; SITE 17: note = Ornithine is chemically
For B3, the Relative cAMP EC50 turned out to be 0.00721 nM in test [1], 0.423 nM with hGLP-1R and 1.69 nM in test [2]. Besides, the cAMP Rel EC50 (1% HSA) in test [1] was 0.616 nM; with hGLP-1R, 44 nM; in test [2], 268 nM.

B4: Example 1234 (peptide)
chain: YXQGTXTSDXXIXLDXQAQXEFIEXLIEGGPSSGAPPPSGGGE
modifications: not fully specified; no fatty acid conjugated; synthetic construct; SITE 2: note = 2-Aminoisobutyric Acid; SITE 6: note = alpha-methyl-2-fluoro-L-phenylalanine; SITE 10: note = …; SITE 11: note = alpha-methyl-L-serine; SITE 13: note = alpha-methyl-leucine; SITE 16: note = L-ornithine; SITE 20: note = 3-(4-Pyridyl)-L-alanine
With B4, the Relative cAMP EC50 in test [1] came out at 0.0135 nM; in the test with hGLP-1R it was 1.17 nM; in test [2], 11.6 nM. Moreover, the cAMP Rel EC50 (1% HSA) turned out to be 0.011 nM in test [1], 1.15 nM in the test with hGLP-1R and 11.7 nM in test [2].

B5: Example 1201 (peptide)
chain: YXQGTXTSDXXIXLDXKAQXEFIEXLIEGGPPSXEPPPSGGGE
modifications: non-natural residues; acylated Lys; C-terminal amide; synthetic construct; SITE 2: note = 2-Aminoisobutyric Acid; SITE 6: note = alpha-methyl-2-fluoro-L-phenylalanine; SITE 10: note = 3-(4-Pyridyl)-L-alanine; SITE 11: note = alpha-methyl-L-serine; SITE 13: note = alpha-methyl-leucine; SITE 16: note = L-ornithine; SITE 17: note = Lysine is chemically mo
In the case of B5, the Relative cAMP EC50 in test [1] stood at 0.00959 nM; with hGLP-1R, 0.888 nM; in test [2] it was 1.76 nM. The cAMP Rel EC50 (in the presence of 1% HSA) in test [1] amounted to 1.02 nM; in the test with hGLP-1R, 93.9 nM; in test [2] it was 234 nM.

B6: Example 1202 (peptide)
chain: YXQGTXTSDXXIXLDXKAQXEFIQXLIEGGPSSGAPPPSGS
modifications: synthetic construct; SITE 2: note = 2-Aminoisobutyric Acid; SITE 6: note = alpha-methyl-2-fluoro-L-phenylalanine; SITE 10: note = 3-(4-Pyridyl)-L-alanine; SITE 11: note = alpha-methyl-L-serine; SITE 13: note = alpha-methyl-leucine; SITE 16: note = L-ornithine; SITE 17: note = Lysine is chemically mo
As for B6, the results for the Relative cAMP EC50 (in test [1]; in the test with hGLP-1R; in test [2]) were 0.00635 nM, 0.237 nM and 0.5 nM, respectively. Moreover, the cAMP Rel EC50 (1% HSA) in test [1] was 0.471 nM; in the test with hGLP-1R, 23.1 nM; in test [2] it was 70.3 nM.

B7: Example 1211 (peptide)
chain: YXQGTXTSDXXIXLDXXAQXEFIEXLIEGGPSSGAPPPSGS
modifications: synthetic construct; SITE 2: note = 2-Aminoisobutyric Acid; SITE 6: note = alpha-methyl-2-fluoro-L-phenylalanine; SITE 10: note = 3-(4-Pyridyl)-L-alanine; SITE 11: note = alpha-methyl-L-serine; SITE 13: note = alpha-methyl-leucine; SITE 16: note = L-ornithine; SITE 17: note = Ornithine is chemically
Consider B7, for which the Relative cAMP EC50 in test [1] was determined as 0.00592 nM; with hGLP-1R, 0.276 nM; in test [2], 1.45 nM. Also, the cAMP Rel EC50 (1% HSA) stood at 0.489 nM in test [1], 33.2 nM in the test with hGLP-1R and 211 nM in test [2].

B8: Example 1208 (peptide)
chain: YXQGTXTSDXXIXLDXKAQXEFIEXLIEGGPSSGEPPPSGS
modifications: not fully specified; synthetic construct; SITE 2: note = 2-Aminoisobutyric Acid; SITE 6: note = alpha-methyl-2-fluoro-L-phenylalanine; SITE 10: note = 3-(4-Pyridyl)-L-alanine; SITE 11: note = alpha-methyl-L-serine; SITE 13: note = alpha-methyl-leucine; SITE 16: note = L-ornithine; SITE 17: note = Lysine is chemically mo
As to B8, the Relative cAMP EC50 amounted to 0.00907 nM in test [1], 0.526 nM with hGLP-1R and 3.52 nM in test [2]. For the same molecule, the values for the cAMP Rel EC50 (1% HSA) (in test [1]; with hGLP-1R; in test [2]) were 0.786 nM, 44.8 nM and 451 nM, respectively.

B9: Example 1204 (peptide)
chain: YXQATXTSDXXIXLDXKAQXEFIEXLVEGGPSSGAPPPSGS
modifications: synthetic construct; SITE 2: note = 2-Aminoisobutyric Acid; SITE 4: note = D-amino acid; SITE 6: note = alpha-methyl-2-fluoro-L-phenylalanine; SITE 10: note = 3-(4-Pyridyl)-L-alanine; SITE 11: note = alpha-methyl-L-serine; SITE 13: note = alpha-methyl-leucine; SITE 16: note = L-ornithine; SITE 17: n
Consider B9, for which the Relative cAMP EC50 amounted to 0.21 nM in test [1], 0.338 nM in the test with hGLP-1R and 3.5 nM in test [2]. The results for the cAMP Rel EC50 (1% HSA) (in test [1]; in the test with hGLP-1R; in test [2]) were 15.8 nM, 37.4 nM and 507 nM, respectively.

B10: Example 1210 (peptide)
chain: YXQGTXTSDXXIXLDXXAQXEFIEXLVEGGPSSGAPPPSGS
modifications: synthetic construct; SITE 2: note = 2-Aminoisobutyric Acid; SITE 6: note = alpha-methyl-2-fluoro-L-phenylalanine; SITE 10: note = 3-(4-Pyridyl)-L-alanine; SITE 11: note = alpha-methyl-L-serine; SITE 13: note = alpha-methyl-leucine; SITE 16: note = L-ornithine; SITE 17: note = Ornithine is chemically
As for B10, the Relative cAMP EC50 in test [1] was found to be 0.00704 nM; with hGLP-1R, 0.375 nM; in test [2], 2.25 nM. The cAMP Rel EC50 (1% HSA) amounted to 0.635 nM in test [1], 38.1 nM with hGLP-1R and 288 nM in test [2].

B11: Example 1203 (peptide)
chain: YXQATXTSDXXIXLDXKAQXEFIEXLIEGGPSSGAPPPSGS
modifications: synthetic construct; SITE 2: note = 2-Aminoisobutyric Acid; SITE 4: note = D-amino acid; SITE 6: note = alpha-methyl-2-fluoro-L-phenylalanine; SITE 10: note = 3-(4-Pyridyl)-L-alanine; SITE 11: note = alpha-methyl-L-serine; SITE 13: note = alpha-methyl-leucine; SITE 16: note = L-ornithine; SITE 17: n
In the case of B11, the Relative cAMP EC50 turned out to be 0.0774 nM in test [1], 0.292 nM with hGLP-1R and 2.58 nM in test [2]. Also, the cAMP Rel EC50 (1% HSA) in test [1] turned out to be 8.5 nM; with hGLP-1R it was 38.9 nM; in test [2], 436 nM.

These data come from patent publication US20240270821A1, “GIP/GLP1/GCG TRI-RECEPTOR AGONISTS AND USES THEREOF” (priority 2023, published 2024).
